Laboratory results from patent US6077666.

Columns and labels:
[1] = target: somatostatin receptors in GH4 C1 cells; experiment: radioligand filtration binding on crude GH4 C1 membranes, vehicle-treated cells
[2] = target: somatostatin receptors in GH4 C1 cells; experiment: radioligand filtration binding on crude GH4 C1 membranes, sense oligo treated cells
[3] = target: somatostatin receptors in GH4 C1 cells; experiment: radioligand filtration binding on crude GH4 C1 membranes, cells treated with antisense oligo for 24 hours
[4] = target: somatostatin receptors in GH4 C1 cells; experiment: radioligand filtration binding on crude GH4 C1 membranes, antisense-treated against vehicle and sense-treated cells

## [125I]tyr-somatostatin, S-14 (from UniProt P61278) (peptide)
[1]
  [125I]tyr-somatostatin binding (fmol/mg), vehicle-treated cells: 408 fmol/mg
[2]
  [125I]tyr-somatostatin binding (fmol/mg), sense oligo treated cells: 350 fmol/mg
[3]
  [125I]tyr-somatostatin binding, antisense oligo treated cells: 166 fmol/mg
[4]
  decline in [125I]tyr-somatostatin binding after antisense treatment: 60%
